Assay results: patent publication US20150037339A1

Tests used:
Activin A (human) [1] = target: Activin A (human) (UniProt P08476); test: Octet cross-competition; binder on sensor tip; 50 nM hActivin A pre-bound with 1 uM H4H10423P (col 4); dark grey box
Activin A (human) [2] = target: Activin A (human) (UniProt P08476); test: Octet cross-competition; binder on sensor tip; 50 nM hActivin A pre-bound with 1 uM H4H10429P (col 6); dark grey box
Activin A (human) [3] = target: Activin A (human) (UniProt P08476); test: Octet cross-competition; binder on sensor tip; 50 nM hActivin A pre-bound with 1 uM Control 1 (col 10); dark grey box
Activin A (human) [4] = target: Activin A (human) (UniProt P08476); test: Octet cross-competition; binder on sensor tip; 50 nM hActivin A pre-bound with 1 uM Control 3 (col 11); dark grey box
Activin A (human) [5] = target: Activin A (human) (UniProt P08476); test: Octet cross-competition; binder on sensor tip; 50 nM hActivin A pre-bound with 1 uM H4H10432P2 (col 7); dark grey box
Activin A (human) [6] = target: Activin A (human) (UniProt P08476); test: Octet cross-competition; binder on sensor tip; 50 nM hActivin A pre-bound with 1 uM H4H10446P2 (col 1); dark grey box
Activin A (human) [7] = target: Activin A (human) (UniProt P08476); test: Octet cross-competition; binder on sensor tip; 50 nM hActivin A mixed with 1 uM Isotype control 12 (-) (col 12); light grey box (self)
Activin A (human) [8] = target: Activin A (human) (UniProt P08476); test: Octet cross-competition; binder on sensor tip; 50 nM hActivin A mixed with 1 uM Isotype control 13 (-) (col 13); light grey box (self)
[9] = target: Activin A (homodimer of two inhibin βA subunits; R&D Systems, #338-AC) (human) (UniProt P08476); test: SPR blocking: 5 nM Activin A + 15 nM binder over hActRIIA-hFc surface
Sequence of Activin A (homodimer of two inhibin βA subunits; R&D Systems, #338-AC) (human) (P08476 311-426 limits assumed): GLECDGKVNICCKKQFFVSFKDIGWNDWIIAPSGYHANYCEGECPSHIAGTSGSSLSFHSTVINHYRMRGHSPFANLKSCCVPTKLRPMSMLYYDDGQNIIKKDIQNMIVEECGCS

[10] = target: Activin A (homodimer of two inhibin βA subunits; R&D Systems, #338-AC) (human) (UniProt P08476); test: SPR blocking: 5 nM Activin A + 30 nM binder over hActRIIA-hFc surface
[11] = target: Activin A (homodimer of two inhibin βA subunits; R&D Systems, #338-AC) (human) (UniProt P08476); test: SPR blocking: 5 nM Activin A + 60 nM binder over hActRIIA-hFc surface
[12] = target: Activin A (homodimer of two inhibin βA subunits; R&D Systems, #338-AC) (human) (UniProt P08476); test: SPR blocking: 5 nM Activin A + 0 nM binder over Follistatin-288 surface
[13] = target: Activin A (homodimer of two inhibin βA subunits; R&D Systems, #338-AC) (human) (UniProt P08476); test: SPR blocking: 5 nM Activin A + 0.00 nM binder over hActRIIA-hFc surface
[14] = target: Activin A (homodimer of two inhibin βA subunits; R&D Systems, #338-AC) (human) (UniProt P08476); test: SPR blocking: 5 nM Activin A + 0.94 nM binder over hActRIIA-hFc surface
[15] = target: Activin A (homodimer of two inhibin βA subunits; R&D Systems, #338-AC) (human) (UniProt P08476); test: SPR blocking: 5 nM Activin A + 1.88 nM binder over hActRIIA-hFc surface
[16] = target: Activin A (homodimer of two inhibin βA subunits; R&D Systems, #338-AC) (human) (UniProt P08476); test: SPR blocking: 5 nM Activin A + 3.75 nM binder over hActRIIA-hFc surface
[17] = target: Activin A (homodimer of two inhibin βA subunits; R&D Systems, #338-AC) (human) (UniProt P08476); test: SPR blocking: 5 nM Activin A + 7.50 nM binder over hActRIIA-hFc surface
[18] = target: Activin A (homodimer of two inhibin βA subunits; R&D Systems, #338-AC) (human) (UniProt P08476); test: SPR blocking: 5 nM Activin A + 15 nM binder over Follistatin-288 surface
[19] = target: Activin A (homodimer of two inhibin βA subunits; R&D Systems, #338-AC) (human) (UniProt P08476); test: SPR blocking: 5 nM Activin A + 30 nM binder over Follistatin-288 surface
[20] = target: Activin A (homodimer of two inhibin βA subunits; R&D Systems, #338-AC) (human) (UniProt P08476); test: SPR blocking: 5 nM Activin A + 60 nM binder over Follistatin-288 surface
[21] = target: Activin A (homodimer of two inhibin βA subunits; R&D Systems, #338-AC) (human) (UniProt P08476); test: SPR blocking: 5 nM Activin A + 7.5 nM binder over Follistatin-288 surface
[22] = target: Activin A (homodimer of two inhibin βA subunits; R&D Systems, #338-AC) (human) (UniProt P08476); test: SPR blocking: 5 nM Activin A + 0.94 nM binder over Follistatin-288 surface
[23] = target: Activin A (homodimer of two inhibin βA subunits; R&D Systems, #338-AC) (human) (UniProt P08476); test: SPR blocking: 5 nM Activin A + 1.88 nM binder over Follistatin-288 surface
[24] = target: Activin A (homodimer of two inhibin βA subunits; R&D Systems, #338-AC) (human) (UniProt P08476); test: SPR blocking: 5 nM Activin A + 3.75 nM binder over Follistatin-288 surface
[25] = target: Activin A (homodimer of two inhibin βA subunits; R&D Systems, #338-AC) (human) (UniProt P08476); test: SPR blocking: 5 nM Activin A + 15 nM binder over hActRIIB-hFc (Control 4) surface
[26] = target: Activin A (homodimer of two inhibin βA subunits; R&D Systems, #338-AC) (human) (UniProt P08476); test: SPR blocking: 5 nM Activin A + 30 nM binder over hActRIIB-hFc (Control 4) surface
[27] = target: Activin A (homodimer of two inhibin βA subunits; R&D Systems, #338-AC) (human) (UniProt P08476); test: SPR blocking: 5 nM Activin A + 60 nM binder over hActRIIB-hFc (Control 4) surface
[28] = target: Activin A (homodimer of two inhibin βA subunits; R&D Systems, #338-AC) (human) (UniProt P08476); test: SPR blocking: 5 nM Activin A + 0.00 nM binder over hActRIIB-hFc (Control 4) surface
[29] = target: Activin A (homodimer of two inhibin βA subunits; R&D Systems, #338-AC) (human) (UniProt P08476); test: SPR blocking: 5 nM Activin A + 0.94 nM binder over hActRIIB-hFc (Control 4) surface
[30] = target: Activin A (homodimer of two inhibin βA subunits; R&D Systems, #338-AC) (human) (UniProt P08476); test: SPR blocking: 5 nM Activin A + 1.88 nM binder over hActRIIB-hFc (Control 4) surface
[31] = target: Activin A (homodimer of two inhibin βA subunits; R&D Systems, #338-AC) (human) (UniProt P08476); test: SPR blocking: 5 nM Activin A + 3.75 nM binder over hActRIIB-hFc (Control 4) surface
[32] = target: Activin A (homodimer of two inhibin βA subunits; R&D Systems, #338-AC) (human) (UniProt P08476); test: SPR blocking: 5 nM Activin A + 7.50 nM binder over hActRIIB-hFc (Control 4) surface
Activin A (human) [33] = target: Activin A (human) (UniProt P08476); test: SPR (Biacore 4000), captured on anti-human Fc, 200 nM ligand injected, 37 C
Activin AB (human) = Activin AB (human) (UniProt P08476); test: as above
Sequence of Activin AB (human) (P08476 311-426 limits assumed, chain 1 of 2): as the sequence (P08476 311-426 limits assumed) above
Sequence of Activin AB (human) (chain, as listed by the source limits assumed, chain 2 of 2): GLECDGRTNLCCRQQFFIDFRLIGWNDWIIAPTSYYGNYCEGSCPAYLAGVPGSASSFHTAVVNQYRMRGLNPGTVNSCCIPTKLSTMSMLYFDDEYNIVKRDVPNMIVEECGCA

Activin AC (human) = Activin AC (human) (UniProt P55103); test: as above
Sequence of Activin AC (human) (chain, as listed by the source, chain 1 of 2): as the sequence (P08476 311-426 limits assumed) above
Sequence of Activin AC (human) (P55103 237-352, chain 2 of 2): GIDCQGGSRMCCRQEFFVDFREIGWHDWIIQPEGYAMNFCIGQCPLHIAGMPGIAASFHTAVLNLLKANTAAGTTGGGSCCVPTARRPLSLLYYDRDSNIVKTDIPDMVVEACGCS

Activin B (human) = Activin B (human) (UniProt P09529); test: as above
Sequence of Activin B (human) (P09529 293-407 G326S limits assumed): as the sequence (chain, as listed by the source limits assumed, chain 2 of 2) above

GDF11 (human) = GDF11 (human) (UniProt O95390); test: as above
Sequence of GDF11 (human) (O95390 299-407 limits assumed): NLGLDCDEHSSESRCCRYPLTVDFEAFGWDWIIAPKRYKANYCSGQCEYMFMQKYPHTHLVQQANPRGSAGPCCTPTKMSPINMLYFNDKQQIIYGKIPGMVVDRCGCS

GDF8 (human) = GDF8 (human) (UniProt O14793); test: as above
hBMP10 (human) = hBMP10 (human) (UniProt O95393); test: as above
Sequence of hBMP10 (human) (O95393 317-424 limits assumed): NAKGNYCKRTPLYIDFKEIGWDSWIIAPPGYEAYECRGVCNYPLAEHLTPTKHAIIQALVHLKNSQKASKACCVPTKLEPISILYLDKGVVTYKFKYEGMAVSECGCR

hBMP2 (human) = hBMP2 (human) (UniProt P12643); test: as above
Sequence of hBMP2 (human) (P12643 283-396 limits assumed): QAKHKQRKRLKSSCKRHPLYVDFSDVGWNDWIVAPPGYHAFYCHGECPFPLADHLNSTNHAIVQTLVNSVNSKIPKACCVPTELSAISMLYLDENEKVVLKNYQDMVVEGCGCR

hBMP4 (human) = hBMP4 (human) (UniProt P12644); test: as above
Sequence of hBMP4 (human) (P12644 293-408 limits assumed): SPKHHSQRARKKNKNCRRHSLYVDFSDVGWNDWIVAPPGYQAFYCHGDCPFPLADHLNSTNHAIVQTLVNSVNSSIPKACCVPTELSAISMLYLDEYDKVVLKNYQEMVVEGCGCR

hBMP6 (human) = hBMP6 (human) (UniProt P22004); test: as above
Sequence of hBMP6 (human) (P22004 382-513 limits assumed): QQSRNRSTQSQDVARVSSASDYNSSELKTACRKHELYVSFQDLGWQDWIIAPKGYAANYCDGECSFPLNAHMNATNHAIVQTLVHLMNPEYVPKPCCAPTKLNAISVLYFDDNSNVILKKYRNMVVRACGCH

hBMP7 (human) = hBMP7 (human) (UniProt P18075); test: as above
Sequence of hBMP7 (human) (P18075 293-431 limits assumed): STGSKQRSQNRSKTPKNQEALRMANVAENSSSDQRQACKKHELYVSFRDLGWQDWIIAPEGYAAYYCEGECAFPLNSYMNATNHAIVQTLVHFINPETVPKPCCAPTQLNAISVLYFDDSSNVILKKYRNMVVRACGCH

hBMP9 (human) = hBMP9 (human) (UniProt Q9UK05); test: as above
Sequence of hBMP9 (human) (Q9UK05 320-429 limits assumed): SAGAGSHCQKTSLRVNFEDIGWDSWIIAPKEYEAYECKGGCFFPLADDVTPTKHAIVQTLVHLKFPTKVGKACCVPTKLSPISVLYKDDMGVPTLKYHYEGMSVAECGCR

Sequence of Activin A (human) (P08476 311-426 limits assumed): as the sequence (P08476 311-426 limits assumed) above

Row | Substance | % bound RU w/no inhibitor [9] | % bound RU w/no inhibitor [10] | % bound RU w/no inhibitor [11] | % bound RU w/no inhibitor [12] | % bound RU w/no inhibitor [13] | % bound RU w/no inhibitor [14] | % bound RU w/no inhibitor [15] | % bound RU w/no inhibitor [16] | % bound RU w/no inhibitor [17] | % bound RU w/no inhibitor [18] | % bound RU w/no inhibitor [19] | % bound RU w/no inhibitor [20] | % bound RU w/no inhibitor [21] | % bound RU w/no inhibitor [22] | % bound RU w/no inhibitor [23] | % bound RU w/no inhibitor [24] | % bound RU w/no inhibitor [25] | % bound RU w/no inhibitor [26] | % bound RU w/no inhibitor [27] | % bound RU w/no inhibitor [28] | further results
1 | isotype control antibodies (antibody) |  |  |  |  |  |  |  |  |  |  |  |  |  |  |  |  |  |  |  |  | binding response (Activin A (human) [1]): 0.18; binding response (Activin A (human) [2]): 0.22; binding response (Activin A (human) [3]): 0.26; binding response (Activin A (human) [4]): 0.2; binding response (Activin A (human) [5]): 0.14; binding response (Activin A (human) [6]): 0.22; binding response (Activin A (human) [7]): 0.15; binding response (Activin A (human) [8]): 0.24
2 | Control 3 (murine anti-Activin A monoclonal antibody from R&D Systems, catalog number MAB3381) | 1% | 1% | 0% | 100% | 100% | 207% | 190% | 139% | 32% | 5% | 7% | 9% | 33% | 172% | 170% | 145% | 2% | 1% | 2% | 100% | % bound RU w/no inhibitor [29]: 135%; % bound RU w/no inhibitor [30]: 133%; % bound RU w/no inhibitor [31]: 120%; % bound RU w/no inhibitor [32]: 33%
3 | Isotype Control mAb (antibody) |  |  |  |  |  |  |  |  |  |  |  |  |  |  |  |  |  |  |  |  | binding response (resonance units) for 200 nM ligand (Activin A (human) [33]): -0.1 RU; binding response (resonance units) for 200 nM ligand (Activin AB (human)): -0.1 RU; binding response (resonance units) for 200 nM ligand (Activin AC (human)): -0.1 RU; binding response (resonance units) for 200 nM ligand (Activin B (human)): 1.9 RU; binding response (resonance units) for 200 nM ligand (GDF11 (human)): 3 RU; binding response (resonance units) for 200 nM ligand (GDF8 (human)): 0.5 RU; binding response (resonance units) for 200 nM ligand (hBMP10 (human)): 0.3 RU; binding response (resonance units) for 200 nM ligand (hBMP2 (human)): -1 RU; binding response (resonance units) for 200 nM ligand (hBMP4 (human)): 0.4 RU; binding response (resonance units) for 200 nM ligand (hBMP6 (human)): 5.1 RU; binding response (resonance units) for 200 nM ligand (hBMP7 (human)): 4.3 RU; binding response (resonance units) for 200 nM ligand (hBMP9 (human)): -1 RU
4 | isotype control antibody (Example 8) | 116% | 118% | 119% | 100% | 100% | 109% | 112% | 110% | 115% | 102% | 104% | 103% | 102% | 100% | 102% | 97% | 110% | 111% | 115% | 100% | % bound RU w/no inhibitor [29]: 105%; % bound RU w/no inhibitor [30]: 105%; % bound RU w/no inhibitor [31]: 104%; % bound RU w/no inhibitor [32]: 107%
